The source of these data is patent EP4703388A1 (Jiangsu Hengrui Pharmaceuticals Co., Ltd., dated 2024).

T1: cyno TF ECD-His (cTF-his) (monkey (cyno))
T1 construct: also called bio-cTF-his; monkey TF-His protein
T1 chain: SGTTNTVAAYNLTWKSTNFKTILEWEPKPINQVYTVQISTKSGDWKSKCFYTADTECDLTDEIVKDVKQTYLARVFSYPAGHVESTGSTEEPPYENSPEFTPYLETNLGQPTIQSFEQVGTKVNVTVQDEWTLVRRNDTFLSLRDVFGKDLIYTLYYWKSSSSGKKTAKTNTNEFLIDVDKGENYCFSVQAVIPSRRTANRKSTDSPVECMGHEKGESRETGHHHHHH

B1: hu10H10-29 (antibody, V domains shown)
VH: EVQLVQSGSELKKPGASVKVSCKASGYTFITYWIEWVKQRPGQGLEWMGDILPYSGSTNYNENFKGRATFSADTSVSTAYLQISSLKAEDTAVYYCARSGYYGNSGFAYWGQGTLVTVSS
VL: DIQMTQSPSSLSASVGDRVTITCKSSQSLLSSGNQKNYLTWYQQKPGKAPKLLIYWASTRESGVPSRFSGSGSGTDFTLTISSLQPEDFATYYCQNDYTYPLTFGQGTKLEIK
notes: H11+L1; Full-length IgG
B2: hu10H10-33 (antibody, V domains shown)
VH: B1 VH with Y54G
VL: B1 VL with S62E
notes: H7+L3; Full-length IgG
B3: hu10H10-35 (antibody, V domains shown)
VH: B1 VH with I30R, Y54G
VL: B1 VL with S62E
notes: H9+L3; Full-length IgG
B4: hu10H10-36 (antibody, V domains shown)
VH: B1 VH with T31E, Y54G
VL: B1 VL with S62E
notes: H10+L3; Full-length IgG
B5: hu10H10-38 (antibody, V domains shown)
VH: B1 VH with Y54G, S55H
VL: B1 VL with S62E
notes: H12+L3; Full-length IgG
B6: hu10H10-53 (antibody, V domains shown)
VH: B1 VH
VL: B1 VL with G33S, S62E
notes: H11+L6; Full-length IgG
B7: hu10H10-58 (antibody, V domains shown)
VH: B1 VH with K38R, Y54G, T69V
VL: B1 VL with G33S, S62E
notes: H2+L6; Full-length IgG
B8: hu10H10-39 (antibody, V domains shown)
VH: B1 VH with Y54G, S57W
VL: B1 VL with S62E
notes: H13+L3 (printed bu10H10-39); Full-length IgG; also called bu10H10-39
B9: hu10H10-57 (antibody, V domains shown)
VH: B1 VH with K38R, Y54G, T69V
VL: B1 VL with S31D, S62E
notes: H2+L5; Full-length IgG
B10: hu10H10-37 (antibody, V domains shown)
VH: B1 VH
VL: B1 VL with S62E
notes: H11+L3; Full-length IgG
B11: hu10H10-34 (antibody, V domains shown)
VH: B1 VH with Y27R, K38R, Y54G
VL: B1 VL with S62E
notes: H8+L3; Full-length IgG
B12: hu10H10-40 (antibody, V domains shown)
VH: B1 VH with K38R, Y54G, S57W, T69V
VL: B1 VL with S62E
notes: H14+L3 (printed bu10H10-40); Full-length IgG; also called bu10H10-40
B13: chimeric antibody CH67 (antibody, human IgG1, kappa, V domains shown)
VH: QVQLKQSGPGLVQPSQSLSITCIVSGFSLTNYGVNWVRQSPRKGLEWLGVIWSRGNTDYNAAFISRLIISKDNSKSQVFLKMNRLQADDTAIYYCARKDAVVATDALDYWGQGTSVTVSS
VL: DIVMTQSHKFMSTSLGDRVSITCKASQDVSTAVAWYQQKPGQSPKLLIYSTSYRYTGVPDRFTGSGSGTDFTFTISSVQAEDLAVYYCQQHYSTPYTFGGGTKLEIKR
notes: Murine 67# variable regions + human constant regions
B14: hu67-14 (antibody, human IgG1, kappa, V domains shown)
VH: EVTLKQSGPVLVKPTQTLTLTCTVSGFSLTNYGVNWIRQPPRKGLEWLGVIWSRGNTDYNAAFISRLTISKDNSKSQVVLKMTNMDPVDTATYYCARKDAVVATDALDYWGQGTTVTVSS
VL: DIQMTQSHKFLSASVGDRVTITCKASQDVSTAVAWYQQKPGKSPKLLIYSTSYRYTGVPSRFSGSGSGTDFTFTISSLQPEDIATYYCQQHYSTPYTFGGGTKVEIKR
B15: hu67-4 (antibody, human IgG1, kappa, V domains shown)
VH: EVQLQESGPGLVKPSQTLSLTCTVSGFSLTNYGVNWIRQPPRKGLEWIGVIWSRGNTDYNAAFISRVTISKDNSKSQVSLKLSSVTAADTAVYYCARKDAVVATDALDYWGQGTTVTVSS
VL: DIVMTQSPKSLAVSLGERATINCKASQDVSTAVAWYQQKPGQPPKLLIYSTSYRYTGVPDRFSGSGSGTDFTLTISSLQAEDVAVYYCQQHYSTPYTFGGGTKVEIKR
B16: chimeric antibody CH310 (antibody, human IgG1, kappa, V domains shown)
VH: EVQLQQSGPELVKPGASLKISCKASGYSFTGYYMNWVKQSPEKSLEWIGEINPSTGGSTYNQKFKAKATLTVDQSSNTAYMQLKSLTSEDSAVYYCARRELGGPFGYWGQGTPVTVSA
VL: SIVMTQTPKFLLVSSGDRVTITCKASQSVSNGIAWYQQKPGQSPKLLIYFASNRYTGVPDRFTGSGYGTDFTFTISTVQAEDLAVYFCQQDYSSPWTFGGGTKLEIKR
notes: Murine 310# variable regions + human constant regions
B17: hu67-11 (antibody, human IgG1, kappa, V domains shown)
VH: B15 VH with R42G, N73T, S76N
VL: B14 VL with H8P, K9S, F10S, S43A
B18: hu67Y118 (antibody, human IgG1, kappa, V domains shown)
VH: B15 VH with P40S, R42G, I64K, N73T, S76N, V101I
VL: DIQMTQSPSSLSASVGDRVTITCKASQDVQTAVAWYQQKPGKAPKLLIYSTHYRYTGVPSRFSGSGSGTDFTFTISSLQPEDIATYYCLQLIGVPHTFGGGTKVEIKR
B19: hu310-12 (antibody, human IgG1, kappa, V domains shown)
VH: EVQLVQSGAEVKKPGASVKVSCKASGYSFTGYYMNWVRQAPGQGLEWMGEINPSTGGSTYNQKFKARVTLTVDQSTNTAYMELSSLRSEDTAVYYCARRELGGPFGYWGQGTTVTVSS
VL: DIQMTQSPSSLSASVGDRVTITCKASQSVSNGIAWYQQKPGKAPKLLIYFASNRYTGVPSRFSGSGSGTDFTFTISSLQPEDIATYYCQQDYSSPWTFGGGTKVEIKR
B20: hu310-15 (antibody, human IgG1, kappa, V domains shown)
VH: B19 VH
VL: B19 VL with D1S, N31S, A43S, S67Y
B21: hu310-16 (antibody, human IgG1, kappa, V domains shown)
VH: B19 VH
VL: B19 VL with D1S, N31T, A43S, S67Y
B22: hu310-14 (antibody, human IgG1, kappa, V domains shown)
VH: B19 VH
VL: B19 VL with D1S, N31Q, A43S, S67Y
B23: hu310-13 (antibody, human IgG1, kappa, V domains shown)
VH: B19 VH
VL: B19 VL with D1S, A43S, S67Y

Substitutions are numbered along the chain they refer to.

In the first test the target is T2, human tissue factor (TF) on MDA-MB-231, NCI-H358 and HCT116 cells (human, UniProt P13726 33-295).
T2 construct: whole, on cells; also called TF antigen; CD142
Briefly: flow cytometry on H358 cells. In general terms: In flow cytometry, cells or beads pass a laser one at a time.
What is called EC50 is the concentration that produces a half-maximal response. Turning to B1, the EC50 was 0.45 nM.

B2 came in with an EC50 of 0.96 nM.

As to B3, the EC50 was 0.79 nM.

As for B4, a half-maximal response (EC50) required 0.96 nM.

Molecule B5 returned an EC50 of 0.81 nM.

Molecule B6 displayed an EC50 of 0.41 nM.

The molecule B7 gave an EC50 of 1.09 nM.

Take B8: the EC50 came out at 0.42 nM.

In the case of B9, a half-maximal effect (EC50) was put at 1.02 nM.

On to B10, for which the response was half-maximal at 0.35 nM (EC50).

In turn, B11 registered an EC50 of 0.99 nM.

Turning to B12, the half-maximal effective concentration (EC50) stood at 0.55 nM.

For B13, the EC50 was 55.9 nM.

Turning to B14, the EC50 is 107 nM.

B15 showed an EC50 of 90.5 nM.

The target of a further test is T2, human tissue factor (TF) on MDA-MB-231, …. Briefly: flow cytometry on MDA-MB-231 cells.
B1 registered an EC50 of 1.09 nM.

B2: the EC50 stood at 1.09 nM.

B3 yielded an EC50 of 1.09 nM.

In the case of B4, the EC50 turned out to be 2.14 nM.

B5 came in with an EC50 of 1.14 nM.

In the case of B6, the response was half-maximal at 1.09 nM (EC50).

B7 registered an EC50 of 1.43 nM.

Molecule B8 returned an EC50 of 1.1 nM.

B9 had an EC50 of 1.12 nM.

B10 came in with an EC50 of 1.07 nM.

B11: a half-maximal response (EC50) required 1.12 nM.

For B12, the EC50 was 1.07 nM.

In turn, B13 had an EC50 of 16.5 nM.

Molecule B16 had an EC50 of 1.84 nM.

On to B17, for which a half-maximal response (EC50) required 26.3 nM.

B18: the EC50 was determined as 7.05 nM.

Take B14: the EC50 stood at 18.9 nM.

Regarding B15, the midpoint of the response, the EC50, lay at 18 nM.

For B19, the EC50 turned out to be 1.95 nM.

Regarding B20, the response was half-maximal at 1.98 nM (EC50).

B21: the response was half-maximal at 2.26 nM (EC50).

B22 gave an EC50 of 1.76 nM.

In the case of B23, a half-maximal effect (EC50) was put at 1.39 nM.

The next test concerns the target T3, human TF ECD-His (hTF-his) (human, UniProt P13726 33-251).
T3 construct: also called bio-hTF-his; human TF-His protein
Briefly: SPR Biacore T200, antibody on Protein A chip, TF-His as analyte, 1:1 model.
A word on the Kd: it is the concentration at which binding is half-saturated. In general, koff refers to the rate constant with which the complex falls apart. Broadly, the kon is a measure of how fast the partners come together. On to B1, for which binding was characterised by a dissociation constant (Kd) of 0.545 nM, the koff turned out to be 7.45e-05 s⁻¹ and the kon came to 137000 M⁻¹ s⁻¹.

B6 came in with a Kd of 0.47 nM, a koff of 7.34e-05 s⁻¹ and a kon of 156000 M⁻¹ s⁻¹.

B13: the dissociation constant Kd was 36.7 nM, the koff was found to be 0.000969 s⁻¹ and the kon was 26400 M⁻¹ s⁻¹.

With B16, the Kd is 23.2 nM, the koff was 0.00949 s⁻¹ and the kon was determined as 409000 M⁻¹ s⁻¹.

In the case of B17, the Kd is 16.5 nM, the koff was found to be 0.000675 s⁻¹ and the kon was determined as 40900 M⁻¹ s⁻¹.

B14 came in with a Kd of 20.1 nM, a koff of 0.000624 s⁻¹ and a kon of 31000 M⁻¹ s⁻¹.

B15 had a Kd of 18.9 nM, a koff of 0.000766 s⁻¹ and a kon of 40500 M⁻¹ s⁻¹.

Another test addresses T1, cyno TF ECD-His (cTF-his). The test is described as above.
Take B1: binding was put at a Kd of 0.642 nM, the koff is 9.83e-05 s⁻¹ and the kon was found to be 153000 M⁻¹ s⁻¹.

B6 came in with a Kd of 0.375 nM, a koff of 6.77e-05 s⁻¹ and a kon of 181000 M⁻¹ s⁻¹.

B13 registered a Kd of 16 nM, a dissociation rate constant (koff) of 0.000473 s⁻¹ and a kon of 29500 M⁻¹ s⁻¹.

B16 returned a Kd of 23.5 nM, an off-rate (koff) of 0.00767 s⁻¹ and a kon of 327000 M⁻¹ s⁻¹.

Take B17: the Kd amounted to 8.95 nM, the koff amounted to 0.000243 s⁻¹ and the kon turned out to be 27100 M⁻¹ s⁻¹.

B14 gave a Kd of 12.9 nM, a koff of 0.000399 s⁻¹ and a kon of 31000 M⁻¹ s⁻¹.

The molecule B15 gave a Kd of 15.5 nM, a koff of 0.000523 s⁻¹ and a kon of 33700 M⁻¹ s⁻¹.
